Assay results reported in paper PMC4399817.

Legend:
[1] = target: HLA-B*27:05 heavy chain, carboxy terminally Sv5 tagged, stably expressed in isogenic HeLa cells (HeLa-B27.Sv5) (human); experiment: pulse chase, immunoprecipitation and non-reducing SDS-PAGE
[2] = target: HLA-B27.C164S, C-terminally Sv5 tagged misfolding mutant of HLA-B*27:05 (human); experiment: non-reducing SDS-PAGE and immunoblot
[3] = target: HLA-B27.C101S, C-terminally Sv5 tagged misfolding mutant of HLA-B*27:05 (human); experiment: non-reducing SDS-PAGE and immunoblot

“HLA-B*27:05 heavy chain, carboxy terminally Sv5 tagged, stably expressed in isogenic HeLa cells (HeLa-B27.Sv5) (natural protein)” was tested, and the stoichiometry N [1] was 2.
In the case of “HLA-B27.C164S, C-terminally Sv5 tagged misfolding mutant of HLA-B*27:05 (natural protein)”, the stoichiometry N [2] was 2.
With “HLA-B27.C101S, C-terminally Sv5 tagged misfolding mutant of HLA-B*27:05 (natural protein)” the stoichiometry N [3] was 2.
